Assay results as given in the supplement of paper PMC9112550, “Optimization of the antimicrobial peptide Bac7 by deep mutational scanning” (BMC Biology, 2022).

Test system: Escherichia coli TOP10
Assay: shrunken log2 fold change of peptide-encoding DNA abundance (4.5 h post-induction vs induction); higher = less antimicrobial activity (less host growth inhibition)
Conditions: time post-induction: 4.5 h; library: site-saturation at positions 5, 18, 19, 20
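Also: peptides expressed intracellularly from a pBAD plasmid library in pooled LB shake-flask culture, induced with 0.3% L-arabinose, DNA abundance read by NGS, three biological replicates, DESeq2 with apeglm shrinkage.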

Sequence | shrunken log2 fold change
RRIRARPPRLPRPRPRPDDHPRP | 0.432
RRIRARPPRLPRPRPRPDEEPRP | 0.901
RRIRARPPRLPRPRPRPDEGPRP | 0.37
RRIRARPPRLPRPRPRPDGFPRP | 0.135
RRIRARPPRLPRPRPRPDGLPRP | 0.292
RRIRARPPRLPRPRPRPDGMPRP | -0.141
RRIRARPPRLPRPRPRPDHDPRP | 0.592
RRIRARPPRLPRPRPRPDHSPRP | 0.0675
RRIRARPPRLPRPRPRPDIRPRP | 0.148
RRIRARPPRLPRPRPRPDKTPRP | -0.00345
RRIRARPPRLPRPRPRPDKWPRP | -0.0676
RRIRARPPRLPRPRPRPDMAPRP | 0.265
RRIRARPPRLPRPRPRPDMCPRP | -0.335
RRIRARPPRLPRPRPRPDMKPRP | -0.0184
RRIRARPPRLPRPRPRPDPHPRP | 0.373
RRIRARPPRLPRPRPRPDQDPRP | 0.605
RRIRARPPRLPRPRPRPDSDPRP | -0.0357
RRIRARPPRLPRPRPRPDSGPRP | 0.18
RRIRARPPRLPRPRPRPDSRPRP | 0.12
RRIRARPPRLPRPRPRPDTRPRP | 0.0596
RRIRARPPRLPRPRPRPDVQPRP | 0.474
RRIRARPPRLPRPRPRPDVWPRP | 0.342
RRIRARPPRLPRPRPRPDWRPRP | 0.146
RRIRARPPRLPRPRPRPDYHPRP | -0.879
RRIRARPPRLPRPRPRPDYLPRP | -0.805
RRIRARPPRLPRPRPRPEALPRP | 1.71
RRIRARPPRLPRPRPRPEAQPRP | 1.66
RRIRARPPRLPRPRPRPECHPRP | 1.38

Sequence | shrunken log2 fold change
RRIRARPPRLPRPRPRPECQPRP | 0.333
RRIRARPPRLPRPRPRPEDAPRP | 0.894
RRIRARPPRLPRPRPRPEDGPRP | 1.48
RRIRARPPRLPRPRPRPEEKPRP | 1.22
RRIRARPPRLPRPRPRPEEMPRP | 1.73
RRIRARPPRLPRPRPRPEFWPRP | 1.12
RRIRARPPRLPRPRPRPEGLPRP | 0.527
RRIRARPPRLPRPRPRPEHHPRP | 0.132
RRIRARPPRLPRPRPRPEHMPRP | 0.137
RRIRARPPRLPRPRPRPEKEPRP | 0.248
RRIRARPPRLPRPRPRPEKYPRP | 0.101
RRIRARPPRLPRPRPRPELLPRP | 0.961
RRIRARPPRLPRPRPRPELTPRP | 1.38
RRIRARPPRLPRPRPRPEMPPRP | 0.981
RRIRARPPRLPRPRPRPEMWPRP | 1.21
RRIRARPPRLPRPRPRPENAPRP | 0.687
RRIRARPPRLPRPRPRPENFPRP | 0.0336
RRIRARPPRLPRPRPRPENKPRP | 0.31
RRIRARPPRLPRPRPRPENTPRP | 0.397
RRIRARPPRLPRPRPRPEVWPRP | 1.43
RRIRARPPRLPRPRPRPEYCPRP | 0.409
RRIRARPPRLPRPRPRPFADPRP | 0.438
RRIRARPPRLPRPRPRPFANPRP | 0.0657
RRIRARPPRLPRPRPRPFATPRP | 0.66
RRIRARPPRLPRPRPRPFDGPRP | -0.22
RRIRARPPRLPRPRPRPFEIPRP | 0.083
RRIRARPPRLPRPRPRPFERPRP | -0.0075
